# From IntAct's records for PubMed 25910212
# B1: U4/U6 small nuclear ribonucleoprotein Prp31 (Homo sapiens), Q8WWY3 (parent)
# chain: MSLADELLADLEEAAEEEEGGSYGEEEEEPAIEDVQEETQLDLSGDSVKTIAKLWDSKMFAEIMMKIEEYISKQAKASEVMGPVEAAPEYRVIVDANNLTVEIENELNIIHKFIRDKYSKRFPELESLVPNALDYIRTVKELGNSLDKCKNNENLQQILTNATIMVVSVTASTTQGQQLSEEELERLEEACDMALELNASKHRIYEYVESRMSFIAPNLSIIIGASTAAKIMGVAGGLTNLSKMPACNIMLLGAQRKTLSGFSSTSVLPHTGYIYHSDIVQSLPPDLRRKAARLVAAKCTLAARVDSFHESTEGKVGYELKDEIERKFDKWQEPPPVKQVKPLPAPLDGQRKKRGGRRYRKMKERLGLTEIRKQANRMSFGEIEEDAYQEDLGFSLGHLGKSGSGRVRQTQVNEATKARISKTLQRTLQKQSVVYGGKSTIRDRSSGTASSVAFTPLQGLEIVNPQAAEKKVAEANQKYFSSMAEFLKVKGEKSGLMST
# partner: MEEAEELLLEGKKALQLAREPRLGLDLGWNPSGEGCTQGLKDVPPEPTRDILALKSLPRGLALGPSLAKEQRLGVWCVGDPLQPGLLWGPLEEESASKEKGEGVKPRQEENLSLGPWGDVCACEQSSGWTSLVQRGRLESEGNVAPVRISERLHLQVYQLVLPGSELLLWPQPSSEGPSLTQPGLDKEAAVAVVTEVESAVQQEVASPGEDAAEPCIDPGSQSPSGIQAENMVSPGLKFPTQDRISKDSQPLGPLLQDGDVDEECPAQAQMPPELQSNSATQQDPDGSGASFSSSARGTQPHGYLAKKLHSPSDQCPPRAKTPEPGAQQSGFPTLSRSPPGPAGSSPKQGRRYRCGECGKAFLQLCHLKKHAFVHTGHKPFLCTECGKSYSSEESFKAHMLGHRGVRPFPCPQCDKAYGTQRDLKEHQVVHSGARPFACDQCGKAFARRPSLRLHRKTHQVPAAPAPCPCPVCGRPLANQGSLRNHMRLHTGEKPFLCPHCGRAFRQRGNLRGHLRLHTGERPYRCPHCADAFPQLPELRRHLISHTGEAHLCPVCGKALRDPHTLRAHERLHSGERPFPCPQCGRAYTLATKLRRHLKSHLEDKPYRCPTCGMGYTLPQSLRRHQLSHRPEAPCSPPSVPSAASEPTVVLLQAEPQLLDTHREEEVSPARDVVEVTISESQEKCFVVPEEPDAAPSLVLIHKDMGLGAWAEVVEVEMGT
# B2: Mitochondrial import inner membrane translocase subunit Tim8 A (Homo sapiens), O60220 (parent)
# chain: MDSSSSSSAAGLGAVDPQLQHFIEVETQKQRFQQLVHQMTELCWEKCMDKPGPKLDSRAEACFVNCVERFIDTSQFILNRLEQTQKSKPVFSESLSD
# B3: Elongation factor Ts, mitochondrial (Homo sapiens), P43897-2 (parent)
# chain: MSLLRSLRVFLVARTGSYPAGSLLRQSPQPRHTFYAGPRLSASASSKELLMKLRRKTGYSFVNCKKALETCGGDLKQAEIWLHKEAQKEGWSKAAKLQGRKTKEGLIGLLQEGNTTVLVEVNCETDFVSRNLKFQLLVQQVALGTMMHCQTLKDQPSAYSKVQWLTPVNLALWEAEAGGSLEGFLNSSELSGLPAGPDREGSLKDQLALAIGKLGENMILKRAAWVKVPSGFYVGSYVHGAMQSPSLHKLVLGKYGALVICETSEQKTNLEDVGRRLGQHVVGMAPLSVGSLDDEPGGEAETKMLSQPYLLDPSITLGQYVQPQGVSVVDFVRFECGEGEEAAETE
# partner: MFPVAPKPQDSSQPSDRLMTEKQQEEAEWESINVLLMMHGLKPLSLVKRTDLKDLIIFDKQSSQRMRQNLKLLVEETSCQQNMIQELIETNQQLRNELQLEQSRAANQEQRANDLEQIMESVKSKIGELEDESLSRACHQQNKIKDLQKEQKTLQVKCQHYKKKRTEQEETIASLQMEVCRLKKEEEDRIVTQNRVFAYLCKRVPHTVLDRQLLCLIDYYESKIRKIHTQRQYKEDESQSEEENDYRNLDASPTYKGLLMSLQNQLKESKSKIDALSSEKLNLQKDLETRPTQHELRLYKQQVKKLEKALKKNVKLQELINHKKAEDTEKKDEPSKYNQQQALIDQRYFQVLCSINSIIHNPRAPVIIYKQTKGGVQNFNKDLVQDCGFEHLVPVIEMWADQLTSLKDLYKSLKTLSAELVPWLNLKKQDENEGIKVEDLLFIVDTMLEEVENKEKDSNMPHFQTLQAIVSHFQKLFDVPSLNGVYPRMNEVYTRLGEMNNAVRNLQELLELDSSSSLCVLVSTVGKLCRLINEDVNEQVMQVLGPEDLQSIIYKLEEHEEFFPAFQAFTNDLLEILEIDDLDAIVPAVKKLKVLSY
# B4: PiggyBac transposable element-derived protein 1 (Homo sapiens), Q96JS3 (parent)
# chain: MYEALPGPAPENEDGLVKVKEEDPTWEQVCNSQEGSSHTQEICRLRFRHFCYQEAHGPQEALAQLRELCHQWLRPEMHTKEQIMELLVLEQFLTILPKELQPCVKTYPLESGEEAVTVLENLETGSGDTGQQASVYIQGQDMHPMVAEYQGVSLECQSLQLLPGITTLKCEPPQRPQGNPQEVSGPVPHGSAHLQEKNPRDKAVVPVFNPVRSQTLVKTEEETAQAVAAEKWSHLSLTRRNLCGNSAQETVMSLSPMTEEIVTKDRLFKAKQETSEEMEQSGEASGKPNRECAPQIPCSTPIATERTVAHLNTLKDRHPGDLWARMHISSLEYAAGDITRKGRKKDKARVSELLQGLSFSGDSDVEKDNEPEIQPAQKKLKVSCFPEKSWTKRDIKPNFPSWSALDSGLLNLKSEKLNPVELFELFFDDETFNLIVNETNNYASQKNVSLEVTVQEMRCVFGVLLLSGFMRHPRREMYWEVSDTDQNLVRDAIRRDRFELIFSNLHFADNGHLDQKDKFTKLRPLIKQMNKNFLLYAPLEEYYCFDKSMCECFDSDQFLNGKPIRIGYKIWCGTTTQGYLVWFEPYQEESTMKVDEDPDLGLGGNLVMNFADVLLERGQYPYHLCFDSFFTSVKLLSALKKKGVRATGTIRENRTEKCPLMNVEHMKKMKRGYFDFRIEENNEIILCRWYGDGIISLCSNAVGIEPVNEVSCCDADNEEIPQISQPSIVKVYDECKEGVAKMDQIISKYRVRIRSKKWYSILVSYMIDVAMNNAWQLHRACNPGASLDPLDFRRFVAHFYLEHNAHLSD
# partner: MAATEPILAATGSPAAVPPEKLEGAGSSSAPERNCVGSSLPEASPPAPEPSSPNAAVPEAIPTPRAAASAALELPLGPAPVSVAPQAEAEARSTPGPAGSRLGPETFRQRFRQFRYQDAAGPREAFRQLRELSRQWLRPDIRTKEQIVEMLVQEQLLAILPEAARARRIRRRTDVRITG
# B5: Mothers against decapentaplegic homolog 3 (Homo sapiens), P84022 (parent)
# chain: MSSILPFTPPIVKRLLGWKKGEQNGQEEKWCEKAVKSLVKKLKKTGQLDELEKAITTQNVNTKCITIPRSLDGRLQVSHRKGLPHVIYCRLWRWPDLHSHHELRAMELCEFAFNMKKDEVCVNPYHYQRVETPVLPPVLVPRHTEIPAEFPPLDDYSHSIPENTNFPAGIEPQSNIPETPPPGYLSEDGETSDHQMNHSMDAGSPNLSPNPMSPAHNNLDLQPVTYCEPAFWCSISYYELNQRVGETFHASQPSMTVDGFTDPSNSERFCLGLLSNVNRNAAVELTRRHIGRGVRLYYIGGEVFAECLSDSAIFVQSPNCNQRYGWHPATVCKIPPGCNLKIFNNQEFAALLAQSVNQGFEAVYQLTRMCTIRMSFVKGWGAEYRRQTVTSTPCWIELHLNGPLQWLDKVLTQMGSPSIRCSSVS
# B6: THAP domain-containing protein 1 (Homo sapiens), Q9NVV9 (parent)
# chain: MVQSCSAYGCKNRYDKDKPVSFHKFPLTRPSLCKEWEAAVRRKNFKPTKYSSICSEHFTPDCFKRECNNKLLKENAVPTIFLCTEPHDKKEDLLEPQEQLPPPPLPPPVSQVDAAIGLLMPPLQTPVNLSVFCDHNYTVEDTMHQRKRIHQLEQQVEKLRKKLKTAQQRCRRQERQLEKLKEVVHFQKEKDDVSERGYVILPNDYFEIVEVPA
# B7: Carbonic anhydrase-related protein (Homo sapiens), P35219 (parent)
# chain: MADLSFIEDTVAFPEKEEDEEEEEEGVEWGYEEGVEWGLVFPDANGEYQSPINLNSREARYDPSLLDVRLSPNYVVCRDCEVTNDGHTIQVILKSKSVLSGGPLPQGHEFELYEVRFHWGRENQRGSEHTVNFKAFPMELHLIHWNSTLFGSIDEAVGKPHGIAIIALFVQIGKEHVGLKAVTEILQDIQYKGKSKTIPCFNPNTLLPDPLLRDYWVYEGSLTIPPCSEGVTWILFRYPLTISQLQIEEFRRLRTHVKGAELVEGCDGILGDNFRPTQPLSDRVIRAAFQ
# Variants of: B1
# Conditions: with zn408_human ZNF408, Q9H9D4
row,effect of a mutation on the interaction,Variant
1,with no effect,L107V

# Variants of: B2
# Conditions: with stam2_human STAM2, O75886
row,effect of a mutation on the interaction,Variant
1,disrupting interaction strength,C66W

# Variants of: B3
# Conditions: with cep70_human CEP70, Q8NHQ1
row,effect of a mutation on the interaction,Variant
1,disrupting interaction strength,R333W

# Variants of: B4
# Conditions: with scnd1_human SCAND1, P57086
row,effect of a mutation on the interaction,Variant
1,with no effect,H806D
2,with no effect,Q248E
3,with no effect,G244E
4,with no effect,I678V
5,with no effect,P256L

# Variants of: B5
# Conditions: with wwp1_human WWP1, Q9H0M0
row,effect of a mutation on the interaction,Variant
1,with no effect,N197I
2,with no effect,I170V

# Variants of: B5
# Conditions: with crx_human CRX
# Target sequence in this assay (O43186 whole entry): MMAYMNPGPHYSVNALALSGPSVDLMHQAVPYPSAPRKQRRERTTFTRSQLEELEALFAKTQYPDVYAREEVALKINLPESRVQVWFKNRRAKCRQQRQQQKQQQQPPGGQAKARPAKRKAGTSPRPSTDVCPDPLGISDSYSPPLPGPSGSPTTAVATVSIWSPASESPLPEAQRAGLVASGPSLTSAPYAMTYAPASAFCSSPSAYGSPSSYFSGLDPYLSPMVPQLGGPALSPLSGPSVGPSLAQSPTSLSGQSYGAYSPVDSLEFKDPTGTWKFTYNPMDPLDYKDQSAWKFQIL
row,effect of a mutation on the interaction,Variant
1,with no effect,N197I
2,with no effect,I170V

# Variants of: B5
# Conditions: with wwp2_human WWP2, O00308
# wwp2_human WWP2, O00308, sequence (O00308 whole entry): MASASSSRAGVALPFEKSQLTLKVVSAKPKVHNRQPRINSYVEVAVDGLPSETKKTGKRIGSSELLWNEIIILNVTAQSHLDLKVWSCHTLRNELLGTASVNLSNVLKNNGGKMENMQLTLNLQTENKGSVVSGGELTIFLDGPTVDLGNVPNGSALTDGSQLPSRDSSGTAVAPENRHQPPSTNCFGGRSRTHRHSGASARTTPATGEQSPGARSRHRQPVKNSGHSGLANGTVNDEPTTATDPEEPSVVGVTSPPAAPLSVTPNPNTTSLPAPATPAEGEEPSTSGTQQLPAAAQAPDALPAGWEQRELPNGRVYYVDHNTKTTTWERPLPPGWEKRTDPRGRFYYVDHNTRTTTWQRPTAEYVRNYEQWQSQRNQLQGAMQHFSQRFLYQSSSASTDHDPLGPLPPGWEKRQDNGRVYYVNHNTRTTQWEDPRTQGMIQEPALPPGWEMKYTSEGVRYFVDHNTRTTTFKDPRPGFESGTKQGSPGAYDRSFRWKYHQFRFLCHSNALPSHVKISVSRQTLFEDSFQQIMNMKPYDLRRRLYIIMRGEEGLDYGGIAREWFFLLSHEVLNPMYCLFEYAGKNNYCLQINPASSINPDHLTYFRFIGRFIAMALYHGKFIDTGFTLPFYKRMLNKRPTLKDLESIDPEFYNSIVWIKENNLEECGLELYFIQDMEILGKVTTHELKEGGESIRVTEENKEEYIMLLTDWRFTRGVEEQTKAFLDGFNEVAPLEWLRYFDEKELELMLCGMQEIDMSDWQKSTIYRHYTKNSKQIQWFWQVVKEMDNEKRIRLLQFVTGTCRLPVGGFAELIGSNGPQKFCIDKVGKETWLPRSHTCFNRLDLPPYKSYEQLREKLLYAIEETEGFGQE
row,effect of a mutation on the interaction,Variant
1,with no effect,N197I
2,with no effect,I170V

# Variants of: B5
# Conditions: with smad4_human SMAD4, Q13485
# smad4_human SMAD4, Q13485, sequence (Q13485 whole entry): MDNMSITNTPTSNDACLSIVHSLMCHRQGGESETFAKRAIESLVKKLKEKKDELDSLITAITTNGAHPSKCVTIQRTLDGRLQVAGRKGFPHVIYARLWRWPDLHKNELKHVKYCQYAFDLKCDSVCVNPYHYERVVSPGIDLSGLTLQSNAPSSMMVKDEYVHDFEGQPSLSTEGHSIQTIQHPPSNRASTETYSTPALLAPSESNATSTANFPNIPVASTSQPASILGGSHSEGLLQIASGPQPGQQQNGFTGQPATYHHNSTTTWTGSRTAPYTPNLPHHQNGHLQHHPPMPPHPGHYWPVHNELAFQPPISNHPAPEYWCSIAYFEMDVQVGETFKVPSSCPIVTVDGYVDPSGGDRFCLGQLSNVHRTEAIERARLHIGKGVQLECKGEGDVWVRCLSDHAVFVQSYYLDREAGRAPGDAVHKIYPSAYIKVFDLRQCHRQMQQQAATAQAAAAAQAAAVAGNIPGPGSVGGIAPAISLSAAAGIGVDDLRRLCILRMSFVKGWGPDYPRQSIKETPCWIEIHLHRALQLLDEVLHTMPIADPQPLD
row,effect of a mutation on the interaction,Variant
1,with no effect,N197I
2,with no effect,I170V

# Variants of: B5
# Conditions: with meox2_human MEOX2, P50222
# meox2_human MEOX2, P50222, sequence (P50222 whole entry): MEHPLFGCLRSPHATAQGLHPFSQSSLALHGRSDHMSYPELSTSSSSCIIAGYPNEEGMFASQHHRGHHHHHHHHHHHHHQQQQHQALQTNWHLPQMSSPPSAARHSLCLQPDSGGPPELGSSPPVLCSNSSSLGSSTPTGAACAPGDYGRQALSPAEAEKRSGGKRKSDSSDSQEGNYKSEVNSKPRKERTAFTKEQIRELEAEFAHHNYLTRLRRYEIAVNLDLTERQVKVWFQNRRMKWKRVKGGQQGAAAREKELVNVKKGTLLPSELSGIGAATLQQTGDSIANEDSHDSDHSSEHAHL
row,effect of a mutation on the interaction,Variant
1,with no effect,N197I
2,with no effect,I170V

# Variants of: B5
# Conditions: with ccd33_human CCDC33, Q8N5R6
# ccd33_human CCDC33, Q8N5R6, sequence (Q8N5R6 whole entry): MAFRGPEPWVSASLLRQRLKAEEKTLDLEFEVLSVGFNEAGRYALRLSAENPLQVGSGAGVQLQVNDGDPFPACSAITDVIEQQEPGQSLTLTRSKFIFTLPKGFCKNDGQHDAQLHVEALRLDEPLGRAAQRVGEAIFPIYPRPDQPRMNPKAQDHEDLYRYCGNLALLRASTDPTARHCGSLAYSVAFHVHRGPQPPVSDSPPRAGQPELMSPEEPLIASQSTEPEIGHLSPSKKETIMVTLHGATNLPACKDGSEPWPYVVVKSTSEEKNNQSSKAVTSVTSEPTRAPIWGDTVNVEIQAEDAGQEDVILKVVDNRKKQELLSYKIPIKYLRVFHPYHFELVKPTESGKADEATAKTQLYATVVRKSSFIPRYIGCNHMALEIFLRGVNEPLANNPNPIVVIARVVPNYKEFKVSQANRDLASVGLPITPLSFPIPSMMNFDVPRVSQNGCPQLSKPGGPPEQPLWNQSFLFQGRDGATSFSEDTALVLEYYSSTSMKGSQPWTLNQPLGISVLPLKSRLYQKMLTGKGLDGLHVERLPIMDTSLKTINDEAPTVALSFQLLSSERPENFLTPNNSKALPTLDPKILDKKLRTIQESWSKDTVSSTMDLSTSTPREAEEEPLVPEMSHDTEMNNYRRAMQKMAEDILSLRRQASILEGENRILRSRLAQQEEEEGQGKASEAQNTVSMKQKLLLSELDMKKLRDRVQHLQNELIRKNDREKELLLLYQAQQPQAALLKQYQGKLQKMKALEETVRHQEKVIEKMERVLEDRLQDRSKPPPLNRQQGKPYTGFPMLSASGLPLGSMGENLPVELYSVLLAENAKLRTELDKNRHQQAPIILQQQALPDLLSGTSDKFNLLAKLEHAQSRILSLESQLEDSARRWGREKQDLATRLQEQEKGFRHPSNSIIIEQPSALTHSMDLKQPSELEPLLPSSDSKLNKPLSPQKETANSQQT
row,effect of a mutation on the interaction,Variant
1,with no effect,N197I
2,with no effect,I170V

# Variants of: B6
# Conditions: with RALYL
row,effect of a mutation on the interaction,Variant
1,with no effect,F81L

# Variants of: B6
# Conditions: with nup62_human NUP62, P37198
# nup62_human NUP62, P37198, sequence (P37198 whole entry): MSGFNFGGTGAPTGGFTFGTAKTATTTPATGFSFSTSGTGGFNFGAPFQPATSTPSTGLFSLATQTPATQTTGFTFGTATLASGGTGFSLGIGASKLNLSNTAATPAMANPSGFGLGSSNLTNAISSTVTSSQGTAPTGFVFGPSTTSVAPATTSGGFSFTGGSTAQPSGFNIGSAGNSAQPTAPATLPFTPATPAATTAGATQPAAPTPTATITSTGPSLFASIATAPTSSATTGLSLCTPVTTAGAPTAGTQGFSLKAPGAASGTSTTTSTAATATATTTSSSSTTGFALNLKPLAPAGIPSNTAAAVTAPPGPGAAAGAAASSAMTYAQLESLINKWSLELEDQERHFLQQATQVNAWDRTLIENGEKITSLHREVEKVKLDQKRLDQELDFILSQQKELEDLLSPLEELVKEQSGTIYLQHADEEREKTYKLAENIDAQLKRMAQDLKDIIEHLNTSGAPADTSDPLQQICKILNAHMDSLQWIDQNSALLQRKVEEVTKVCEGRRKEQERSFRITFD
row,effect of a mutation on the interaction,Variant
1,with no effect,F81L

# Variants of: B7
# Conditions: with int7_human INTS7, Q9NVH2
# int7_human INTS7, Q9NVH2, sequence (Q9NVH2 whole entry): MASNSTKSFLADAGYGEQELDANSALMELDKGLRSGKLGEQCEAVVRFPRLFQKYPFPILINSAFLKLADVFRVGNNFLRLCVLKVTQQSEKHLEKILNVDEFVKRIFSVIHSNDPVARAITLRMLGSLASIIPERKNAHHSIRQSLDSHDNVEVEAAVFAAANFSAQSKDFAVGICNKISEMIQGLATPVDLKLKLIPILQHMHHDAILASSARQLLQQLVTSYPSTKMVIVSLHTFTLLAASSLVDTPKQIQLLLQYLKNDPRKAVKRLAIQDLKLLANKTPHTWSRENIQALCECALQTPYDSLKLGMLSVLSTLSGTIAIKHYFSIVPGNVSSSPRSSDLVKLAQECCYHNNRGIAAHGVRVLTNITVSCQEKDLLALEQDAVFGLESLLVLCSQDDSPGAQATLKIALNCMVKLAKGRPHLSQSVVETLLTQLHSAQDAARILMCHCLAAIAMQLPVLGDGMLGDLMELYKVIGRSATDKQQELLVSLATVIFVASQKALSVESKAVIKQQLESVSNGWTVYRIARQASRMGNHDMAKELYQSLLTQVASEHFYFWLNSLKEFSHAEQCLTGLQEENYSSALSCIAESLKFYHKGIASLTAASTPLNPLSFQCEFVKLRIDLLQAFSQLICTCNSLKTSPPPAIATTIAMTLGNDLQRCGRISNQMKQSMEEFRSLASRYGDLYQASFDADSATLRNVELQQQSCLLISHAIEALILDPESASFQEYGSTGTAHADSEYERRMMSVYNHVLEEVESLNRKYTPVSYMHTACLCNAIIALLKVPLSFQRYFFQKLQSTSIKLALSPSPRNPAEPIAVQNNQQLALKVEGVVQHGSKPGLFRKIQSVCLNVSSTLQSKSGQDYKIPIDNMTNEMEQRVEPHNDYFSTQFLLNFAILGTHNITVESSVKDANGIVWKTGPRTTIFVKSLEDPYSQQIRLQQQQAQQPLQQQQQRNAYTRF
row,effect of a mutation on the interaction,Variant
1,disrupting interaction strength,S100P

# Variants of: B7
# Conditions: with crx_human CRX
# Target sequence in this assay (O43186 whole entry): as the sequence (O43186 whole entry) above
row,effect of a mutation on the interaction,Variant
1,disrupting interaction strength,S100P
